± gives the uncertainty stated by the source.

This data set in a line: amyloid nucleation score (Sup35N fusion, yeast selection) (log enrichment); library NNK1; higher = more nucleation; inactive = no reads after selection. In short, it runs like this: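 For the nucleation score, DiMSum gave the log enrichment of output over input reads, centred on the mode score of non-aggregating sequences. Psi-negative yeast expressing Sup35N fused to peptides of 20 random codons were induced with 100 μM copper sulfate for 24 hours and grown 7 days at 30°C on medium lacking adenine and uracil. Input and output plasmid inserts were Illumina-sequenced, and sequences with under 100 input reads were excluded.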
Substance GTYSKG gave an amyloid nucleation score of 0.7 ± 0.97.
In the case of GCDGATVAGGTNYPDQMYSF, the amyloid nucleation score is 0.786 ± 0.74.
For EVPSMRVNAPLKV the value was “inactive”.
For VGVVCLKFLP the value was -0.064 ± 0.43; for GNSMSHASTVKVFLAQLGGD, -1.04 ± 2.1.
Substance FPMRSWCLEACRHCRQPTFS displayed an amyloid nucleation score of -0.301 ± 1.4.
In the case of WKYIMHLSRFYVFPCSTERG, the amyloid nucleation score came out at 0.112 ± 0.87.
Consider VVISMTTMKVFMLVYTMDFM, for which the amyloid nucleation score came to 0.046 ± 0.21.
GQIDGCGTRVNT yielded an amyloid nucleation score of 2.17 ± 0.14.
As for TRFLNDIVMSIDSSIIDPTC, the figure is 0.809 ± 0.7; as for AWHEGFHCCN, 1.21 ± 0.31; as for FYCLSNKFFYIVCRNALQSS, -0.324 ± 0.35.
For NILVAIL the value was -1.45 ± 1.4.
Regarding ARSSK, the amyloid nucleation score was -0.081 ± 0.23.
Consider TWYILMTRGILGTAATHIRL, for which the amyloid nucleation score was -0.234 ± 0.91.
Substance NVDRSCWRRECPDCWVMLNM showed an amyloid nucleation score of 0.664 ± 0.49.
As for KLVLRGVFIIDFWSNARRAS, the figure is 0 ± 0.29.
Consider ISTSC, for which the amyloid nucleation score turned out to be 0.778 ± 0.49.
For PDFNPMSVVNGCSGSRWLNA the value was -0.676 ± 0.75.
The substance GPGPCWKPITGGWRTRKFTR had an amyloid nucleation score of 0.61 ± 0.56.
In turn, DYRLKLLYYSSWSVLLYFVG gave an amyloid nucleation score of -0.142 ± 0.21.
As for DRIFDHGIHMFSIVGQDLFT, the entry is “inactive”; as for SVLSMLIWYKPHREGSLN, 0.812 ± 1.1; as for FINAYRMFWIGYCNLFSLFL, 1.38 ± 0.52.
For LSSYSTYPCSLTGVRKLNCR the value was -0.205 ± 0.56.
For YRHSDANKHLGGAIQF the value was -0.519 ± 0.53.
The substance DFMALI returned an amyloid nucleation score of -0.013 ± 0.25.
In the case of LVSMYA, the amyloid nucleation score is -0.859 ± 0.73.
For CFIGANPLRNQWMRSTRIVP the value was 0.28 ± 0.61; for HVRHNVYISVCEVARDKRRG, 5.12 ± 0.08; for PVLWASMVN, -0.243 ± 0.49.
For IGAGL the value was -1.07 ± 2.4.
As for ALGLRILCMRRDSRWDSPCS, the figure is 0.353 ± 0.84; as for VDSDLGLSERMTVKSTFAFC, 0.39 ± 0.56; as for SITVPGFVAQISGVPIREYC, 0.348 ± 0.79.
LQWEVSSLNVLRFPRNMERC registered an amyloid nucleation score of 0.289 ± 0.4.
For HVSSSE the value was -0.174 ± 1.1; for YIDIVSQKC, 0.922 ± 0.62; for GYFVYYFLFIYCVFRVFSTL, 4.82 ± 0.12.
For KLPRTCAPLYHMLTHGVGHR the value was -0.075 ± 0.72.
For HDSTGHGEYVVGPEPFFPCA the value was 0.024 ± 0.4; for WSGIVFRIEGVAYVVHVNDA, 1.17 ± 0.18.
The substance EWGANYVGVDCSLVVRRQDV had an amyloid nucleation score of 0.497 ± 0.93.
For CFFFPPEYTKRLKSSSMVRR the value was -0.652 ± 0.9.
As for IATKGKDVVFVRCGPDPQL, the figure is 1.04 ± 0.53.
As for VLLFNHYFLRAAVIIAWVGW, the figure is -0.618 ± 1.6; as for DRRSIAGFHCCWNSKVMVSP, -0.83 ± 0.88.
CITANMDENLVSRIRWASEY: the amyloid nucleation score was 0.462 ± 0.79.
As for CGNSFTKLTTMLTRHHIADG, the figure is 0.437 ± 0.38.
For TGNCAMFPTWLHVIPFSQY the value was 3.1 ± 0.14; for RDKLYA, -1.2 ± 1.5.
As for KVHPYEMDENYNPSRCYSSS, the figure is -0.049 ± 0.48; as for MCMSRP, -1.05 ± 0.9.
In turn, KIKVPRIVLVCKCILFNNLW had an amyloid nucleation score of 1.51 ± 0.34.
As for VTFWDPVVLTTPPKLCI, the figure is -0.946 ± 0.49; as for GAYCFSVCNHREL, -0.365 ± 1.1; as for SSYGKFDGKCLQHM, -0.157 ± 0.76.
MHITDGCGG returned an amyloid nucleation score of -0.456 ± 0.3.
For YVLSLYTNGRSPSA the value was 0.203 ± 0.56; for ITRSWLT, -0.12 ± 0.3.
As for SMTKSIGMRSYGMVAHGAGS, the figure is 0.722 ± 0.45; as for GYMCLSL, 0.395 ± 0.29.
For RWVTSLRPNLDLS the value was 0.869 ± 0.52; for SINRRALRLGHHSSGVMAGL, -0.547 ± 1.3; for RAVANCVLSLCYWNCCLYRY, -0.343 ± 1.4.
SKRATYFFTASLGTQRCLMK had an amyloid nucleation score of 1.29 ± 0.9.
Regarding RDLAPVLRYVPNESKAGVGV, the amyloid nucleation score was -0.626 ± 0.53.
In the case of SWWEFECETS, the amyloid nucleation score result is “inactive”.
For FSLVATGSYITLDSVLMDVL the value was 0.728 ± 0.44.
For RYLFLDWSSESRCPFAASNE the value was 0.104 ± 0.84; for SFVSYYLLS, -1.09 ± 1.9.
Regarding NHMSGIDKGIMRLGEWLGEW, the amyloid nucleation score was -1 ± 0.83.
As for VLTKWGIWGGQWCTVLSRGR, the figure is 0.211 ± 0.37.
As for CSYCVAENQFMEFRGFMRGP, the figure is 0.234 ± 0.34; as for FQFESHW, 1.85 ± 0.24.
Consider VWMRVKIGGVWC, for which the amyloid nucleation score came to 1.58 ± 0.47.
As for CPCWLLMLFPCISYRRNLIV, the figure is -0.605 ± 0.46.
For RFNTWFVNYLCHPLYSLEG the value was 5.55 ± 0.064; for HSLLWPLGFAQ, 0.184 ± 0.67.
As for ALSSWLCGSG, the figure is 0.746 ± 0.9.
LLCLCESRVARYTWACHSWY: the amyloid nucleation score is -0.366 ± 0.3.
As for KVSENLPRMPANLLTI, the figure is 0.09 ± 0.44.
For YMNWFITGHDVGRYLIQFFV the value was -1.74 ± 2.4; for VTCRLPETMPGGTWLNMIIR, “inactive”; for PDLTSCDVIVIWGFGRG, -0.118 ± 1.
As for TEQYCS, the figure is 0.404 ± 1; as for RVKVGSRCVSQFLSTLVQRS, -0.266 ± 1.4; as for HRYYSYSWGLWLSTTWEYFS, “inactive”.
The substance CVMVVSF gave an amyloid nucleation score of 0.934 ± 0.42.
As for VPWLKGAVDPVTRFGV, the figure is -0.016 ± 0.78; as for YIPFGLIYHGKLG, -0.969 ± 2.1.
With MYISYSLNKTPIVFAPCTVH, the amyloid nucleation score was -0.018 ± 0.48.
On to RMKLTQLGYSRGNDSLSVLL, for which the amyloid nucleation score is -0.813 ± 1.4.
As for TNDKCHSITVFSYREVDWTW, the figure is 0.445 ± 0.29; as for GSDGVCFNKNLNSWIYMLST, 0.805 ± 0.64.
In turn, KAFLTRRFLNLYVRIKPYMV had an amyloid nucleation score of -0.503 ± 0.3.
For PTRLLLVSDRVTVHELF the value was “inactive”; for GGHYAVQNPMRVYAYGH, -0.667 ± 1; for DIMKSSKAHELVQSLPIEKR, 0.248 ± 0.64.
For LSWIR the value was -0.09 ± 0.66.
Take FFRGFSWRVCSSFSSLVELW: the amyloid nucleation score result is “inactive”.
For FYIMTLGYCSWFSVGKRLSP the value was -0.551 ± 0.43; for CPYRYYHTNLFMVIFLYRGM, -0.349 ± 0.47; for MYRDDAGFEGMF, 1.19 ± 0.61.
As to SDSIVNKKIVRWYRVFRIGC, the amyloid nucleation score stood at 1.19 ± 0.51.
Regarding VVDSTFWEVIHRRWASAMLD, the amyloid nucleation score was -0.657 ± 0.68.
As for VVDEKREVRSLANVNTASSL, the figure is 0.1 ± 0.28; as for KNVARVHMQCLPAYVLGRNH, 0.018 ± 0.66; as for LSAFNWQGDVNLRECYNVY, -0.337 ± 0.63.
As to HWWVGKRLLLHPWVA, the amyloid nucleation score came to 0.224 ± 0.31.
For ATGINTGMTSNYSVMEMWGF the value was 0.937 ± 0.48; for IHHKD, -0.616 ± 0.24; for QYTAHMLCLALLYRFEWNEN, 2.24 ± 0.27.
As for MMKSRLDPCDNDNFFGRVSH, the figure is -0.257 ± 0.85.
As for MALFSCCCKVYKMG, the figure is 4.59 ± 0.1.
Regarding SSTRT, the amyloid nucleation score came to 0.667 ± 0.97.
As for WTRKS, the figure is -0.067 ± 0.35; as for YAISGAGYMLF, 0.027 ± 1.7.
Consider DQGSWFH, for which the amyloid nucleation score is -0.31 ± 1.1.
For FTNNVLNINVRG the value was 0.253 ± 1.2.
As for LPEEDG, the entry is “inactive”; as for TPAASIRLTRLPEGLIFI, 0.47 ± 0.95; as for ISIRIEDFLYSQ, 0.237 ± 0.57.
As for NEDAPFMVTSKVVSGT, the figure is 0.176 ± 0.34.
Consider RAKSGLMNGDGYRNVAQGDD, for which the amyloid nucleation score amounted to 0.155 ± 0.43.
As for YLVSYMWVSLDDLSLYRANG, the figure is 0.585 ± 0.52; as for SIYRSVIIVMDTKVMRDVLF, 4.97 ± 0.067; as for NKAFGMIV, -0.103 ± 0.79.
For CVKAD the value was -0.354 ± 0.54.
For WVHWWFRHVNMACQNGGFIF the value was -0.565 ± 0.68.
In turn, LLSLNEMYMTLMGGTVPRVG showed an amyloid nucleation score of -0.076 ± 0.56.
As for VLKLLVVRFVPLPSSFYTCE, the figure is 0.193 ± 0.92.
Regarding ICVMS, the amyloid nucleation score result is “inactive”.
Consider CARYNASDRGEASYLIEHCG, for which the amyloid nucleation score was -0.224 ± 0.57.
As for KMIPMTYASKVLKCRLFEVK, the figure is 1.14 ± 0.76; as for YIRNTLTPEMVNWRDLRVPR, -0.152 ± 0.73; as for DKEYWSVSSVRYTTENGWI, 1.07 ± 0.47.
As for TFGGHNVAGASMHGSFGGSL, the figure is 0.242 ± 0.3; as for CSSHDQFSAR, -0.214 ± 0.77.
For SMFASL the value was -0.229 ± 0.43; for GHLSA, “inactive”; for RNQKGIL, -0.042 ± 0.23.

Values taken from the supplement of paper PMC12042874.
